For 1 molecule, Ki results are on record in patent publication US20150274841A1.

Experiment [1] has as its target human plasma kallikrein (PKal) (human), P03952. The experiment in a line: Ki,app; Fab inhibition of PKal cleavage of a substrate peptide, Morrison fit. To be noted: remark: other sources report otherwise.
For experiment [2] the target is unchanged. Briefly: enzyme inhibition assay: rate (F/s) of substrate peptide cleavage by PKal against [Fab] (nM), fitted to the Morrison equation; apparent Ki (Ki,app); Table 3 prints 2.5 nM. To be noted: remark: other sources report otherwise.

Chain of human plasma kallikrein (PKal) (human), P03952 (P03952 20-638 limits assumed): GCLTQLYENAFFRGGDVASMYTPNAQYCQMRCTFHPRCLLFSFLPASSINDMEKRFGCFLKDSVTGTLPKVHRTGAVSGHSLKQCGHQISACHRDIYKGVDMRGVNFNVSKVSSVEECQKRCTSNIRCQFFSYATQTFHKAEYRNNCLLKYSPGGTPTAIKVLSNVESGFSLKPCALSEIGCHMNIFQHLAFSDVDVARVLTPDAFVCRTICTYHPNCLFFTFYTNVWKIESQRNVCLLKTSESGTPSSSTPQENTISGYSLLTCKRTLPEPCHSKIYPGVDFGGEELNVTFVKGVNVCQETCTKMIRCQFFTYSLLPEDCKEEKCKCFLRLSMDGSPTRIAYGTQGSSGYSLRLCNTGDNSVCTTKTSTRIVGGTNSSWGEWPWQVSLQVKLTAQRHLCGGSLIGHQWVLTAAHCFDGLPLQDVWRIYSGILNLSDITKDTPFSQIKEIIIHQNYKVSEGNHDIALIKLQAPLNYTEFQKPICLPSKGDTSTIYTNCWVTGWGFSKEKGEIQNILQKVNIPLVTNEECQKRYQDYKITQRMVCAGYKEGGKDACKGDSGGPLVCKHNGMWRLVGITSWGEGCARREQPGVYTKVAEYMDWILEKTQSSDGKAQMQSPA

B1: M0162-A04 (Fab, V domains shown)
VH: EVQLLESGGGLVQPGGSLRLSCAASGFTFSHYIMMWVRQAPGKGLEWVSGIYSSGGITVYADSVKGRFTISRDNSKNTLYLQMNSLRAEDTAVYYCAYRRTGIPRRDAFDIWGQGTMVTVSS
VL: DIQMTQSPSTLSASVGDRVTITCRASQSISSWLAWYQQKPGKAPNLLIYKASTLESGVPSRFSGSGSGTEFTLTISSLQPDDFATYYCQQYNTYWTFGQGTKVEIK
For B1, the Ki in experiment [1] was 2.5 nM; in experiment [2], 6.54 nM.
